Laboratory results taken from patent publication US12492236B2, “Fusion proteins for the treatment of cardiometabolic diseases” (Shattuck Labs, Inc., priority 2022, dated 2025).

T1: recombinant human GDF-8 (Homo sapiens, UniProt O14793)
T1 sequence (O14793 267-375): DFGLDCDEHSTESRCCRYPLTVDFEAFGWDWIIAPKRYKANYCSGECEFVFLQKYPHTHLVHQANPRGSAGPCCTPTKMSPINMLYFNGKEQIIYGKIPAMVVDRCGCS

T2: recombinant human Activin A (Homo sapiens, UniProt P08476)
T2 sequence (P08476 311-426): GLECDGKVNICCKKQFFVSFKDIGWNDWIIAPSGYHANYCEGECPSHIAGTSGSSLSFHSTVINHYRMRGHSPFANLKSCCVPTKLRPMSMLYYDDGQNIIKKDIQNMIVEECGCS

T3: glucose-dependent insulinotropic polypeptide receptor (GIPR) (Homo sapiens, UniProt P48546)
T3 construct: host or cells: HEK293T (GeneBLAzer GIPR-CRE-bla)
T3 sequence (P48546 22-466): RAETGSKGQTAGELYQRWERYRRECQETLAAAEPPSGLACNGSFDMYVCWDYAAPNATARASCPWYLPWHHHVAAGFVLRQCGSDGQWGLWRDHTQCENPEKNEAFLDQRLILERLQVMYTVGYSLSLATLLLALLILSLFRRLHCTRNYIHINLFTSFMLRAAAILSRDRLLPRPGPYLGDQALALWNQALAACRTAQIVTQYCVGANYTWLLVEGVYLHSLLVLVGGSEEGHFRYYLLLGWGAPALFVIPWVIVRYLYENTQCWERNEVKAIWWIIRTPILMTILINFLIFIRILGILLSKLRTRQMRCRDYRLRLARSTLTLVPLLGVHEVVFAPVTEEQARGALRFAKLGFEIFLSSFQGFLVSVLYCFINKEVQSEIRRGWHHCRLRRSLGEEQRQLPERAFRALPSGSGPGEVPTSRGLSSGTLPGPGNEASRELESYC

T4: GIP receptor (GIPR) (Rattus norvegicus, UniProt P43219)
T4 construct: endogenous in cells; host or cells: rat INS-1 insulinoma cells (with cAMP-luciferase reporter / pGloSensor-22F biosensor)
T4 sequence (P43219 19-455): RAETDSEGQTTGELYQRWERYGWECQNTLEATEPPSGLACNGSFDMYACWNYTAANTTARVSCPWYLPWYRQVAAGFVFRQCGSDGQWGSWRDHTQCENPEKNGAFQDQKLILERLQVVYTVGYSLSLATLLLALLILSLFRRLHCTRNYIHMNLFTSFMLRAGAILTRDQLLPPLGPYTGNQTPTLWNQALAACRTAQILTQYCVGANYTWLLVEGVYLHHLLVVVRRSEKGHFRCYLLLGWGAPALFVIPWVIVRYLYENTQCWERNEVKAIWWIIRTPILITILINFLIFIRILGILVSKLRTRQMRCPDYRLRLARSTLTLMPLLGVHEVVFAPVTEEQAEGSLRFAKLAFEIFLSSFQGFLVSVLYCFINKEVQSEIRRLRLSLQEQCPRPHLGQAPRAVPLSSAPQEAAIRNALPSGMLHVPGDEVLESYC

B1: GIP(Ag)-Fc-FGF19: GIP fused to FGF19 via a hinge-CH2-CH3 Fc domain derived from IgG1; SEQ ID NO: 88 (protein)
chain: YAEGTFISDYSIAMDKIHQQDFVNWLLAQKGKKNDWKHNITQPCPAPEAAGGPSVFLFPPKPKDTLMISRTPEVTCVVVDVSHEDPEVKFNWYVDGVEVHNAKTKPREEQYNSTYRVVSVLTVLHQDWLNGKEYKCKVSNKALPAPIEKTISKAKGQPREPQVYTLPPSRDELTKNQVSLTCLVKGFYPSDIAVEWESNGQPENNYKTTPPVLDSDGSFFLYSKLTVDKSRWQQGNVFSCSVMHEALHNHYTQKSLSLSPGKIEGRMDRDSSPLVHYGWGDPIRLRHLYTSGPHGLSSCFLRIRADGVVDCARGQSAHSLLEIKAVALRTVAIKGVHSVRYLCMGADGKMQGLLQYSEEDCAFEEEIRPDGYNVYRSEKHRLPVSLSSAKQRQLYKNRGFLPLSHFLPMLPMVPEEPEDLRGHLESDMFSSPLETDSMDPFGLVTGLEAVRSPSFEK

Assays:
recombinant human GDF-8 = molecular target: T1, recombinant human GDF-8; assay: MSD platform-based binding assay on plate-bound GDF-8; details: MSD signal, serial dilutions
Description: (§1) The binding by a recombinant human ACVR2B-Fc fusion protein to GDF-8 (also known as myostatin) was characterized using a Meso Scale Discovery (MSD) platform-based assay. Briefly, GDF-8 was coated on a plate and 8× serial dilutions of the purified recombinant human ACVR2B-Fc fusion protein were also added in a series of wells. The protein captured by the plate-bound GDF-8 was detected using an anti-human Fc antibody and a SULFO-TAG conjugated secondary antibody.
(§2) The binding to GDF-8 by the GLP-1-Fc-ACVR2B fusion protein produced using the mmRNA constructs was investigated using a Meso Scale Discovery (MSD) platform-based assay. Briefly, HEK293T cells were transfected with each mRNA construct using lipofectamine 2000, and culture supernatants were collected after 48 hours. GDF-8 was coated on a plate, and 3× serial dilutions of the culture supernatants were added to the plate for capture by the plate-bound GDF-8. The protein captured by the plate-bound GDF-8 was detected using an anti-human Fc antibody and a SULFO-TAG conjugated secondary antibody. The MSD signals generated by the culture supernatants of HEK293T cells transfected with different mmRNA constructs were plotted as a line graph.

[1] = molecular target: T2, recombinant human Activin A; assay: MSD platform-based binding assay on plate-bound Activin A; details: MSD signal, serial dilutions
Description: as §1, with “to activin A” for “to GDF-8”, “as Inhibin beta A)” for “as myostatin)”, “Briefly, Activin A” for “Briefly, GDF-8”, “plate-bound Activin A” for “plate-bound GDF-8”
as §2, with “Activin A” for “GDF-8”, “Activin A.” for “GDF-8.”

[2] = tested on: rat insulinoma INS-1 cells; assay: in vitro glucose-stimulated insulin secretion (GSIS) in INS-1 cells; type: cell-based; details: 1 hour glucose, then 2 hour incubation, ELISA, FIG. 4B
Source text: X is a known inducer of GSIS.

[3] = molecular target: T3, glucose-dependent insulinotropic polypeptide receptor (GIPR); assay: GeneBLAzer GIPR-CRE-bla HEK293T cell-based reporter assay; details: increasing amounts, FIG. 3B
Description: This assay is diagrammatically represented in FIG. 3A. […] In the presence of the β-lactamase LiveBLAzer™ substrate, cells expressing β-lactamase fluoresce blue (460 nm), while those not expressing β-lactamase fluoresce green (530 nm); higher 460/530 ratio indicates the activation of GIPR.
Briefly, GeneBLAzer® GIPR-CRE-bla HEK293T cells were added to wells of black-wall assay plates. […] To each well, LiverBLAzer-FRET B/G substrate mixture was added. The plate was covered with plate sealer and incubated at room temperature for 2 hours in the dark. Fluorescence emission was measured on SpectraMax plate reader at 460 nm and 530 nm with excitation set to 409 nm. After subtraction of background, average value at 460 nm (blue color) was divided by average value at 530 nm (green color) to obtain the 460/530 ratio.

GIP receptor (GIPR) = molecular target: T4, GIP receptor (GIPR); assay: cAMP-Glo assay in rat insulinoma INS-1 cells harboring a cAMP-luciferase reporter gene; type: cell-based; details: 1 hour glucose, then 2 hour incubation, FIG. 4A
Source text: Rat insulinoma INS-1 cells harboring a cAMP-luciferase reporter gene were used to study the activation of GIPR. Without wishing to be bound by theory, the activation of GIPR leads to temporary depletion of ATP because of consumption of ATP in cyclization reaction to produce cAMP as well as by phosphorylation by protein kinase A of its substrate. Without wishing to be bound by theory, the temporary depletion of ATP leads to an inhibition of luciferase activity, which needs ATP as a substrate.

| Molecule | binding to GDF-8 (recombinant human GDF-8) | binding to Activin A [1] | insulin in culture supernatant (GSIS) [2] | 460/530 ratio, indicative of the activation of GIPR [3] | inhibition of luciferase (GIPR activation, cAMP accumulation) (GIP receptor (GIPR)) |
| --- | --- | --- | --- | --- | --- |
| GLP-1-Fc-ACVR2B: GLP-1 fused to ACVR2B extracellular domain via IgG1 hinge-CH2-CH3 Fc domain; SEQ ID NO: 154 | binds to the human GDF-8 | binds to the human Activin A | – | – | – |
| B1 | – | – | stimulated insulin production to a similar, if not greater magnitude than dulaglutide or tirzepatide | dose-dependent and saturable increase in 460/530 ratio | dose-dependent and saturable inhibition of luciferase with similar potency |
